The results in this text go back to patent US12257281B2, “Hydrophilic antibody-drug conjugates” (priority 2014, dated 2025).

Data set [1] in a line: Hydrophobic Interaction Chromatography (HIC) of 8-loaded ADCs. Type of data set: physicochemical. The following applies: for HIC RT (min) h1F6 8-loads: 8-loaded antibody drug conjugates with antibody h1F6, Table 2; for HIC retention time: ADCs containing the drug linkers as 8 loads, Table 1. Here is the method: The hydrophilicity index is measured as the retention time of a conjugate to that of the corresponding unconjugated targeting agent (alone) under high performance liquid chromatography (HPLC) conditions, as further described herein. […] If a different hydrophobic interaction column and/or method is used, it can be calibrated using conjugates from Tables 2 as references to determine reference conjugate mobilities (elution times) on the selected column and/or method. The determined reference mobilities on the selected hydrophobic interaction column and/or method can then be used to calculate a hydrophilicity index of a test article (as would be determined following Example 3). For example, an auristatin T-Glu-Dpr-MA, an me-MMAF and an mc-vc-PABC-MMAE drug linkers can be used to form conjugates to use as references. In another example, an auristatin T-Glu-Dpr-MA-h1F6 ADC, an h1F6-mc-MMAF and an h1F6-mc-vc-PABC-MMAE ADC can be used as references.
Analysis of the ADCs was performed using Hydrophobic Interaction Chromatography (HIC). HIC is performed by running a linear gradient from 0-100% Mobile Phase B (MPB) where Mobile Phase A (MPA) consists of 1.5 M ammonium sulfate, 25 mM potassium phosphate, pH 7.0, and MPB consists of 75% 25 mM potassium phosphate, pH 7.0, 25% isopropanol. Separation was achieved using a Tosoh t-Butyl column (TSK-Gel Butyl-NPR 4.6×35 mm, PN: 14947) heated to 25° C. Test articles were prepared by diluting 70 μg of ADC into MPA such that the total salt concentration is greater than or equal to 1.0 M ammonium sulfate at a total volume of 100 μL. Samples were injected at 90 μL and eluted using a 12 minute gradient. Monitoring at λ=280 nm.

The test system of another data set is 786-O tumors. Description: Single dose mouse xenograft studies, h1F6 ADCs. As to conditions: FIG. 6. It is filed as in vivo. An excerpt:
786-O cells were obtained from American Type Culture Collection (ATCC, Manassas, VA) and propagated in culture conditions recommended by ATCC. To establish 786-O tumors, 5×10^6 cells were implanted into the right flank of athymic nu/nu female donor mice (Harlan, Indianapolis, IN). When donor tumors were approximately 500 mm^3, mice were euthanized and tumors were aseptically excised and ˜0.5×0.5 mm fragments were loaded into a sterilized 13-gauge trocar for implantation into nu/nu mice. When tumors reached ˜100 mm^3, mice were randomly allocated to treatment groups.
Experimental groups were treated via intraperitoneal injection with compounds at the dose and schedule indicated or alternatively left untreated. Tumors were measured periodically and volumes were calculated using the formula V=((L×W^2)/2). Animals were euthanized when tumors reached the volume of 1000 mm^3 or at the end of the study, whichever came first.
Tumor quadrupling times were chosen as time to endpoint (TTE), which was determined by using the non-liner regression analysis for exponential growth of each individual tumor growth data sets from each experimental animal. The median tumor quadrupling time was calculated based on the tumor volume at the beginning of treatment.
Statistical analysis was conducted using Prism (GraphPad) software for Windows. […]

Square brackets hold non-standard residues; d marks the D form. Peptide text beside a SMILES is read from it. * marks the point of attachment. Dolaproine = CO[C@@H]([C@@H]1CCCN1)[C@@H](C)C(=O)O; Hexanoyl(6-maleimido) = O=C1C=CC(=O)N1CCCCCC(=O)*; Dil = CC[C@H](C)[C@H](NC)[C@@H](CC(=O)O)OC; NMeV = CN[C@H](C(=O)O)C(C)C

Turning to `CC[C@H](C)[C@@H]([C@@H](CC(=O)N1CCC[C@H]1[C@H](OC)[C@@H](C)C(=O)N[C@@H](Cc1ccccc1)C(=O)O)OC)N(C)C(=O)[C@@H](NC(=O)[C@H](C(C)C)N(C)C(=O)CCCCCN1C(=O)C=CC1=O)C(C)C` [mc-MMAF, maleimidocaproyl MMAF] ({Hexanoyl(6-maleimido)}-[NMeV]V[Dil][Dolaproine]F-OH), in data set [1], the “HIC RT (min) h1F6 8-loads” value amounted to 7.0 min and the “HIC retention time” value is listed as 7.0 min. As for “maleimidocaproyl-valine-citrulline-p-aminobenzyl-carbamoyl MMAE [mc-vc-PABC-MMAE]”, in data set [1], the “HIC RT (min) h1F6 8-loads” value is given as 9.8 min and the “HIC retention time” value came out at 9.8 min. Consider “maleimidocaproyl-valine-citrulline-p-aminobenzyl-carbamoyl MMAF [mc-vc-PABC-MMAF]”, for which, in data set [1], the “HIC RT (min) h1F6 8-loads” value was 8.2 min and the “HIC retention time” value is 8.2 min.

B1: h1F6-me-vc-PABC-MMAF (conjugate, chains of the INN, looked up)
VH: QVQLVQSGAEVKKPGASVKVSCKASGYTFTNYGMNWVRQAPGQGLKWMGWINTYTGEPTYADAFKGRVTMTRDTSISTAYMELSRLRSDDTAVYYCARDYGDYGMDYWGQGTTVTVSS
VL: DIVMTQSPDSLAVSLGERATINCRASKSVSTSGYSFMHWYQQKPGQPPKLLIYLASNLESGVPDRFSGSGSGTDFTLTISSLQAEDVAVYYCQHSREVPWTFGQGTKVEIK
modifications: me-vc-PABC-MMAF drug conjugate
Take B1: the “activity of 8-loaded versus 4-loaded ADC” value in the data set with 786-O tumors is given as 4-loaded ADC gave better activity than the 8-loaded ADC.
